Test results taken from publication PMC6633393 (Journal of cell science, 2019).

Biological target: Histidine-tagged human TEAD4 (amino acids 217–434) (human, UniProt Q15561 217-434)
Test: native gel or EMSA; TEAD4 incubated with increasing concentrations of VGLL3 peptide before labelled YAP was added; 10 min at room temperature; 10% native gel at 100 V; only labelled YAP is seen
Settings: both partners purified

Sequence of Histidine-tagged human TEAD4 (amino acids 217–434) (Q15561 217-434): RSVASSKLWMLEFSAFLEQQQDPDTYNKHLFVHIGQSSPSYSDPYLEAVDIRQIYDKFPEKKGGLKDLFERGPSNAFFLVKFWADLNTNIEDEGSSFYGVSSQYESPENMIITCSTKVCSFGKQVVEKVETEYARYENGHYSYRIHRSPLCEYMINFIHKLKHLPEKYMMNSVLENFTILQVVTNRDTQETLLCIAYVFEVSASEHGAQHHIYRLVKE

## SRCVLFTYFQGDIGSVVDEHFSRALGQ (peptide, UniProt A8MV65 86-112, looked up) [Unlabelled human VGLL3 (amino acids 86–112) peptide]
  binding result: binds
